{"source": "patent US20090258001A1", "key": {"[1]": {"molecular_target": "CD3 (CD3/TCR complex) on CD4+ and CD8+ T cells of patients (human) (UniProt P07766)", "sequence (P07766 23-207, chain 1 of 3)": "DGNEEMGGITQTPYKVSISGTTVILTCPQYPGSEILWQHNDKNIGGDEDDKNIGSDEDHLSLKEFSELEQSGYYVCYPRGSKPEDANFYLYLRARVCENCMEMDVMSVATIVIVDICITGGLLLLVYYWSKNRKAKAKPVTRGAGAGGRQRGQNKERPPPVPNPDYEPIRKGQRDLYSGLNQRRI", "sequence (chain, as listed by the source, chain 2 of 3)": "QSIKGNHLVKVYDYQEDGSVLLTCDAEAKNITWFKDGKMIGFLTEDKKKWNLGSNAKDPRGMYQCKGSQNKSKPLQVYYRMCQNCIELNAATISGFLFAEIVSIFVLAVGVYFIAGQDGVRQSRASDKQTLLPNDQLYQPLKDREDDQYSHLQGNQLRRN", "sequence (chain, as listed by the source, chain 3 of 3)": "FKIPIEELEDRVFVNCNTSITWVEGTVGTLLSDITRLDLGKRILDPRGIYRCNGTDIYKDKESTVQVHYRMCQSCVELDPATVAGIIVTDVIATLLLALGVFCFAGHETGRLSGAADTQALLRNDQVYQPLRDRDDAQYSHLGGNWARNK", "assay": "flow cytometry of CD4+ T cells, free CD3 sites by biotinylated TRX4; Example 3 Cohort 2, third 0.5 mg dose"}, "[2]": {"molecular_target": "CD3 (CD3/TCR complex) on CD4+ and CD8+ T cells of patients (human) (UniProt P07766)", "assay": "flow cytometry of CD4+ T cells, anti-human IgG; Example 4 Cohort B, end of 0.1 mg infusion"}, "[3]": {"molecular_target": "CD3 (CD3/TCR complex) on CD4+ and CD8+ T cells of patients (human) (UniProt P07766)", "assay": "flow cytometry of CD4+ T cells, anti-human IgG; Example 4 Cohort A*, end of 0.15 mg infusion"}, "[4]": {"molecular_target": "CD3 (CD3/TCR complex) on CD4+ and CD8+ T cells of patients (human) (UniProt P07766)", "assay": "flow cytometry of CD4+ T cells, free CD3 sites by biotinylated TRX4; Example 3 Cohort 3, 0.1 mg"}, "[5]": {"molecular_target": "CD3 (CD3/TCR complex) on CD4+ and CD8+ T cells of patients (human) (UniProt P07766)", "assay": "flow cytometry of CD4+ T cells, free CD3 sites by biotinylated TRX4; Example 3 Cohort 1, end of first 0.1 mg infusion"}, "[6]": {"molecular_target": "CD3 (CD3/TCR complex) on CD4+ and CD8+ T cells of patients (human) (UniProt P07766)", "assay": "flow cytometry of CD4+ T cells, anti-human IgG; Example 4 Cohort B, end of 0.2 mg infusion"}, "[7]": {"molecular_target": "CD3 (CD3/TCR complex) on CD4+ and CD8+ T cells of patients (human) (UniProt P07766)", "assay": "flow cytometry of CD4+ T cells, anti-human IgG; Example 4 Cohort B, end of 0.3 mg infusion"}, "[8]": {"molecular_target": "CD3 (CD3/TCR complex) on CD4+ and CD8+ T cells of patients (human) (UniProt P07766)", "assay": "flow cytometry of CD4+ T cells, anti-human IgG; Example 4 Cohort B, end of 0.75 mg infusion"}, "[9]": {"molecular_target": "CD3 (CD3/TCR complex) on CD4+ and CD8+ T cells of patients (human) (UniProt P07766)", "assay": "flow cytometry of CD4+ T cells, free CD3 sites by biotinylated TRX4; Example 4 Cohort A, 2 hours after last infusion"}, "[10]": {"molecular_target": "CD3 (CD3/TCR complex) on CD4+ and CD8+ T cells of patients (human) (UniProt P07766)", "assay": "flow cytometry of CD4+ T cells, anti-human IgG; Example 4 Cohort C, end of 0.2 mg infusion"}, "[11]": {"molecular_target": "CD3 (CD3/TCR complex) on CD4+ and CD8+ T cells of patients (human) (UniProt P07766)", "assay": "flow cytometry of CD4+ T cells, anti-human IgG; Example 3 Cohort 2 (0.5 mg x3), 2 hours after end of dosing"}, "[12]": {"molecular_target": "CD3 (CD3/TCR complex) on CD4+ and CD8+ T cells of patients (human) (UniProt P07766)", "assay": "flow cytometry of CD4+ T cells, anti-human IgG; Example 4 Cohort A*, end of 0.05 mg infusion"}, "[13]": {"molecular_target": "CD3 (CD3/TCR complex) on CD4+ and CD8+ T cells of patients (human) (UniProt P07766)", "assay": "flow cytometry of CD4+ T cells, anti-human IgG; Example 4 Cohort C, about 24 hours after 1.0 mg infusion"}, "[14]": {"molecular_target": "CD3 (CD3/TCR complex) on CD4+ and CD8+ T cells of patients (human) (UniProt P07766)", "assay": "flow cytometry of CD4+ T cells, anti-human IgG; Example 4 Cohort A*, end of 0.25 mg infusion"}, "[15]": {"molecular_target": "CD3 (CD3/TCR complex) on CD4+ and CD8+ T cells of patients (human) (UniProt P07766)", "assay": "flow cytometry of CD4+ T cells, free CD3 sites by biotinylated TRX4; Example 4 Cohort A, day after last infusion"}, "[16]": {"molecular_target": "CD3 (CD3/TCR complex) on CD4+ and CD8+ T cells of patients (human) (UniProt P07766)"}, "[17]": {"molecular_target": "CD3 (CD3/TCR complex) on CD4+ and CD8+ T cells of patients (human) (UniProt P07766)", "assay": "flow cytometry of CD4+ T cells, free CD3 sites by biotinylated TRX4; Example 4 Cohort A*, 0.1 mg"}, "[18]": {"molecular_target": "CD3 (CD3/TCR complex) on CD4+ and CD8+ T cells of patients (human) (UniProt P07766)", "assay": "flow cytometry of CD4+ T cells, anti-human IgG; Example 4 Cohort A, 2 hours after 0.5 mg infusion"}, "[19]": {"molecular_target": "CD3 (CD3/TCR complex) on CD4+ and CD8+ T cells of patients (human) (UniProt P07766)", "assay": "flow cytometry of CD4+ T cells, anti-human IgG; Example 4 Cohort B, 2 hours after 0.75 mg infusion"}, "[20]": {"molecular_target": "CD3 (CD3/TCR complex) on CD4+ and CD8+ T cells of patients (human) (UniProt P07766)", "assay": "flow cytometry of CD4+ T cells, free CD3 sites by biotinylated TRX4; Example 3 Cohort 3, 2 hours after 0.5 mg infusion"}, "[21]": {"molecular_target": "CD3 (CD3/TCR complex) on CD4+ and CD8+ T cells of patients (human) (UniProt P07766)", "assay": "flow cytometry of CD4+ T cells, free CD3 sites by biotinylated TRX4; Example 4 Cohort B, 0.2 mg"}, "[22]": {"molecular_target": "CD3 (CD3/TCR complex) on CD4+ and CD8+ T cells of patients (human) (UniProt P07766)", "assay": "flow cytometry of CD4+ T cells, anti-human IgG; Example 4 Cohort A, end of 0.2 mg infusion"}, "[23]": {"molecular_target": "CD3 (CD3/TCR complex) on CD4+ and CD8+ T cells of patients (human) (UniProt P07766)", "assay": "flow cytometry of CD4+ T cells, free CD3 sites by biotinylated TRX4; Example 4 Cohort B, 2 hours after last infusion"}, "[24]": {"molecular_target": "CD3 (CD3/TCR complex) on CD4+ and CD8+ T cells of patients (human) (UniProt P07766)", "assay": "flow cytometry of CD4+ T cells, anti-human IgG; Example 4 Cohort C, end of 0.1 mg infusion"}, "[25]": {"molecular_target": "CD3 (CD3/TCR complex) on CD4+ and CD8+ T cells of patients (human) (UniProt P07766)", "assay": "flow cytometry of CD4+ T cells, anti-human IgG; Example 3 Cohort 3, end of 0.5 mg infusion"}}, "data": [{"substance": "TRX4 antibody", "values": [{"measurement": "percent saturation of CD3", "setting": "[1]", "value": 95, "unit": "%"}, {"measurement": "cell-bound TRX4 (MESF of anti-human IgG)", "setting": "[2]", "value": "2e+06", "unit": "MESF units"}, {"measurement": "cell-bound TRX4 (MESF of anti-human IgG)", "setting": "[3]", "value": 800000, "unit": "MESF units"}, {"measurement": "percent saturation of CD3", "setting": "[4]", "value": 45, "unit": "%"}, {"measurement": "percent saturation of CD3", "setting": "[5]", "value": 37, "unit": "%"}, {"measurement": "cell-bound TRX4 (MESF of anti-human IgG)", "setting": "[6]", "value": 400000, "unit": "MESF"}, {"measurement": "cell-bound TRX4 (MESF of anti-human IgG)", "setting": "[7]", "value": 420000, "unit": "MESF units"}, {"measurement": "cell-bound TRX4 (MESF of anti-human IgG)", "setting": "[8]", "value": 480000, "unit": "MESF units"}, {"measurement": "percent saturation of CD3", "setting": "[9]", "value": 60, "unit": "%"}, {"measurement": "cell-bound TRX4 (MESF of anti-human IgG)", "setting": "[10]", "value": "1.2e+06", "unit": "MESF units"}, {"measurement": "cell-bound TRX4 (MESF of anti-human IgG)", "setting": "[11]", "value": 400000, "unit": "MESF units"}, {"measurement": "cell-bound TRX4 (MESF of anti-human IgG)", "setting": "[12]", "value": 300000, "unit": "MESF units"}, {"measurement": "cell-bound TRX4 (MESF of anti-human IgG)", "setting": "[13]", "value": 200000, "unit": "MESF units"}, {"measurement": "cell-bound TRX4 (MESF of anti-human IgG)", "setting": "[14]", "value": 80000, "unit": "MESF units"}, {"measurement": "percent saturation of CD3", "setting": "[15]", "value": 35, "unit": "%"}, {"measurement": "CD3/TCR modulation (decrease in MESF of TCR αβ on T cells, stained with non-competing antibody BMA031)", "setting": "[16]", "value": "> 80", "unit": "%"}, {"measurement": "percent saturation of CD3", "setting": "[17]", "value": 70, "unit": "%"}, {"measurement": "cell-bound TRX4 (MESF of anti-human IgG)", "setting": "[18]", "value": 400000, "unit": "MESF units"}, {"measurement": "cell-bound TRX4 (MESF of anti-human IgG)", "setting": "[19]", "value": 550000, "unit": "MESF units"}, {"measurement": "percent saturation of CD3", "setting": "[20]", "value": 45, "unit": "%"}, {"measurement": "percent saturation of CD3", "setting": "[21]", "value": 60, "unit": "%"}, {"measurement": "cell-bound TRX4 (MESF of anti-human IgG)", "setting": "[22]", "value": 375000, "unit": "MESF units"}, {"measurement": "percent saturation of CD3", "setting": "[23]", "value": 70, "unit": "%"}, {"measurement": "cell-bound TRX4 (MESF of anti-human IgG)", "setting": "[24]", "value": 800000, "unit": "MESF units"}, {"measurement": "cell-bound TRX4 (MESF of anti-human IgG)", "setting": "[25]", "value": 800000, "unit": "MESF units"}]}]}
